The chains are these.
T1: IGSF11 (VSIG3), construct used in SPR and BLI not stated (UniProt Q5DX21 23-241, limits assumed)
T1 sequence (looked up): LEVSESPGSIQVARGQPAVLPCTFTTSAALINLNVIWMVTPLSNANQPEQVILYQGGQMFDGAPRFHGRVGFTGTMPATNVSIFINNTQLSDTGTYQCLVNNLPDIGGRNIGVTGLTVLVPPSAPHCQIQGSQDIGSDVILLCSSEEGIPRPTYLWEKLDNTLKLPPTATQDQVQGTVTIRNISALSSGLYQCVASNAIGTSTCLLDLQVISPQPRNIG

T2: extracellular domain (ECD) of human IGSF11 (VSIG3), HIS-tagged (human, UniProt Q5DX21 23-241, biotinylated in the ELISA of Example 4 (site not stated))
T2 construct: also called HIS-IGSF11; IGSF11-HIS; not shown: HIS6 tag
T2 sequence: T1 sequence (looked up)

B1: human IGSF11 (VSIG3) expressed on the surface of cells (receptor)
chain: LEVSESPGSIQVARGQPAVLPCTFTTSAALINLNVIWMVTPLSNANQPEQVILYQGGQMFDGAPRFHGRVGFTGTMPATNVSIFINNTQLSDTGTYQCLVNNLPDIGGRNIGVTGLTVLVPPSAPHCQIQGSQDIGSDVILLCSSEEGIPRPTYLWEKLDNTLKLPPTATQDQVQGTVTIRNISALSSGLYQCVASNAIGTSTCLLDLQVISPQPRNIGLIAGAIGTGAVIIIFCIALILGAFFYWRSKNKEEEEEEIPNEIREDDLPPKCSSAKAFHTEISSSDNNTLTSSNAYNSRYWSNNPKVHRNTESVSHFSDLGQSFSFHSGNANIPSIYANGTHLVPGQHKTLVVTANRGSSPQVMSRSNGSVSRKPRPPHTHSYTISHATLERIGAVPVMVPAQSRAGSLV
notes: one molecule for all cell lines; the cell line is named under assay; also called IGSF11-expressing cells; HEK-OE
B2: B-002 (chain-swapped, human IgG1 format) (antibody, V domains shown)
VH: EVQLVESGGGLIQPGGSLRLSCAASGFTVSSNYMSWVRQAPGKGLEWVSVIYSGGSTYYADSVKGRFTISRDNSKNTLYLQMNSLRAEDTAVYYCARGNPYYYGDLQVNFDYWGQGTLVTVSS
VL: QAVVTQEPSLTVSPGGTVTLTCASSTGAVTSGYYPNWFQQKPGQAPRALIYSTSNKHSWTPARFSGSLLGGKAALTLSGVQPEDEAEYYCLLYYGGAWVFGGGTKLTVL
notes: VH of A-006 with VL of A-012; IgG1 format; also called B2; Chains-B-002
B3: B-006 (chain-swapped, human IgG1 format) (antibody, V domains shown)
VH: B2 VH
VL: B2 VL with G16E, K41R, H57D
notes: VH of A-006 with VL of A-005; IgG1 format; also called B6; Chains-B-006
B4: B-001 (chain-swapped, human IgG1 format) (antibody, V domains shown)
VH: B2 VH with V5L, A24V
VL: B2 VL with G32A, E87D
notes: VH of A-012 with VL of A-013; IgG1 format; also called B1; Chains-B-001
B5: B-004 (chain-swapped, human IgG1 format) (antibody, V domains shown)
VH: B2 VH with V5L, A24V
VL: B2 VL with A48P, E83D, A97D
notes: VH of A-012 with VL of A-006; IgG1 format; also called B4; Chains-B-004
B6: A-012 (human IgG1 format) (antibody, V domains shown)
VH: B2 VH with V5L, A24V
VL: B2 VL
notes: human IgG1 format

Residue numbers refer to the chain shown, from its start.

The target in experiment [1] is T3, A-015 (scFv-Fc format, mouse IgG2A Fc).
T3 construct: scFv genetically fused to mouse IgG2A Fc, expressed in HEK293; also called scFv-Fc-format of antibody A-015; anti-IGSF11 scFv-Fc (mouse IgG2A)
Put plainly: FACS on CD14-gated monocytes from PBMC of healthy donor A, 30 min at 4 C, fluorescently labelled secondary antibody.

The target in experiment [2] is B1. The experiment in a line: FACS on M579-A2-luc cells treated with scrambled control siRNA (SC).
For experiment [3], the target named is CL-11 (C). Put plainly: FACS on CL-11 cells (do not express IGSF11; negative cell line) treated with IGSF11 siRNA (KD).
In experiment [4] the target is T1, IGSF11 (VSIG3), construct used in SPR …. The experiment in a line: SPR (Biacore), chain-swapped IgG1; IGSF11 construct not stated. On the technique in general: In SPR one partner is held on a chip, and binding of the other changes the refractive index at the surface.
The target in experiment [5] is B1. The experiment in a line: FACS on DMS 273 cells treated with scrambled control siRNA (SC).
Experiment [6] deals with B1. The experiment in a line: FACS on DMS 273 cells treated with IGSF11 siRNA (KD: target knocked down, specificity control).
For experiment [7], the target named is T2, extracellular domain (ECD) of human …. Put plainly: ELISA: IGSF11-HIS coated, IgG1 antibody titrated, anti-human antibody-HRP and TMB; X-axis nM and Y-axis absorbance per legend paragraph 30 [B].
Experiment [8] has as its target CL-11 (C). Put plainly: FACS on CL-11 cells (do not express IGSF11; negative cell line) treated with scrambled control siRNA (SC).
For experiment [9], the target named is B1. The experiment in a line: FACS on M579-A2-luc cells treated with IGSF11 siRNA (KD: target knocked down, specificity control).
Experiment [10] concerns the target B1. The experiment in a line: FACS, IgG1 format, recombinant HEK cells expressing IGSF11 (HEK-OE).
Experiment [11] addresses B1. Put plainly: FACS, IgG1 format, DMS 273 cells.
Experiment [12] concerns the target T2, extracellular domain (ECD) of human …. The experiment in a line: blocking ELISA (Example 5): IgG titrated and pre-incubated with 200 nM his-tagged IGSF11 ECD, complexes added to immobilised VSIR-Fc, bound IGSF11 detected with anti-hexahistidine-HRP; blocked ligand: VSIR-Fc [B]. On the technique in general: ELISA stands for enzyme-linked immunosorbent assay.
Experiment [13] shares this target. The experiment in a line: ELISA: IGSF11-HIS coated, IgG1 antibody titrated, anti-human antibody-HRP and TMB; X-axis nM and Y-axis absorbance per legend paragraph 30.
For experiment [14] the target is unchanged. Put plainly: blocking ELISA (Example 5): IgG titrated and pre-incubated with 200 nM his-tagged IGSF11 ECD, complexes added to immobilised VSIR-Fc, bound IGSF11 detected with anti-hexahistidine-HRP; blocked ligand: VSIR-Fc.
The target is the same in experiment [15]. The description is as above. The source holds these as a separate data set.
The target is the same in experiment [16]. The experiment in a line: ELISA, coated IGSF11-HIS, IgG1 format; EC50 grade (* >1 nM, ** 0.05-1 nM, *** 0.02-0.05 nM, **** <0.02 nM).
Experiment [17] has the same target. Put plainly: ELISA: IGSF11-HIS coated, IgG1 antibody titrated, anti-human antibody-HRP and TMB; X-axis nM and Y-axis absorbance per legend paragraph 30. The source holds these as a separate data set.
Experiment [18] concerns the target T1, IGSF11 (VSIG3), construct used in SPR …. The experiment in a line: BLI (Octet), IgG1 format; IGSF11 construct not stated. Background: BLI is a label-free optical method that tracks binding on a fibre tip over time.
Experiment [19] has the same target. The experiment in a line: SPR (Biacore), IgG1 format; IGSF11 construct not stated.

In general, Kd refers to the concentration at which binding is half-saturated. Low values mean higher affinity, high ones lower affinity. In general, EC50 (read off the curve) refers to the midpoint of the concentration-response curve. Higher therefore signals lower potency in that assay. As a reminder, the EC50 is the concentration that produces a half-maximal response.

T3 sequence (VH, as listed by the source, chain 1 of 2): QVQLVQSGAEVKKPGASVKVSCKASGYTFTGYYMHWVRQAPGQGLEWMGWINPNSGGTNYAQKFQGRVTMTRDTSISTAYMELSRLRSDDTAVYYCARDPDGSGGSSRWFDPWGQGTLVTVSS
T3 sequence (VL, as listed by the source, chain 2 of 2): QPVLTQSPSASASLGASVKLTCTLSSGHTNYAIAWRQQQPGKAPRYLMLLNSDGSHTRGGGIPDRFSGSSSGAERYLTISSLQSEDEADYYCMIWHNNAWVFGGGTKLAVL

For B1, in experiment [1], the binding result is “binds”.

For B2, the percentage binding in experiment [2] came out at 70.7%; with CL-11 (C) [3], 4.54%; in experiment [5] it was 80.1%; in experiment [6], 8.68%; in the experiment with CL-11 (C) [8] it was 3%; in experiment [9] it was 2.77%. In addition, the Kd in experiment [4] was in the range of 100 to 250 nM. For the same molecule, the “EC50 (read off the curve)” value in experiment [7] is roughly 0.01 nM. Moreover, the values for the EC50 in experiment [10] and in [11] were 10 to 50 nM and greater than 50 nM, respectively. In addition, in experiment [12], the “IC50 (read off the curve)” value was roughly 4 nM.

For B3, the concentration giving a half-maximal response (EC50 (read off the curve)) in [13] is roughly 0.02 nM. Also, in experiment [14], the “IC50 (read off the curve)” value was roughly 5 nM.

With B4, the Kd in [4] lay within 250 to 500 nM. Also, in experiment [15], the “IC50 (read off the curve)” value was roughly 2 nM. In [10], the EC50 fell in the range of 10 to 50 nM.

Consider B5, for which the “EC50 (read off the curve)” value in experiment [7] was roughly 0.02 nM. Moreover, in experiment [12], the “IC50 (read off the curve)” value was roughly 5 nM.

Consider B6, for which the percentage binding in experiment [2] is 65.4%; with CL-11 (C) [3], 3.93%; in experiment [5], 75.8%; in experiment [6], 4.77%; with CL-11 (C) [8], 5.11%; in [9] it was 2.35%. Moreover, the values for the half-maximal effective concentration (EC50) in experiment [16], in experiment [10] and in experiment [11] were 0.02 to 0.05 nM, 10 to 50 nM and 10 to 50 nM, respectively. Further, the “EC50 (read off the curve)” value in [17] is roughly 8 pM. Moreover, the “IC50 (read off the curve)” value in experiment [15] is roughly 2 nM. In addition, the equilibrium dissociation constant (Kd) lay within 1 to 10 nM in experiment [18] and 250 to 500 nM in [19].
